Columns and labels:
Test in all cases: cryo-EM structure
[1] = target: Rpt1 (ATPase subunit of the human 26S proteasome) (human, UniProt P35998 1-433)
[2] = target: Rpt5 (ATPase subunit of the human 26S proteasome) (human, UniProt P17980 1-439)
[3] = target: Rpn1 (non-ATPase, ubiquitin-binding subunit of the human 26S proteasome) (human, UniProt Q13200 1-908)
[4] = target: T1, α7 (CP subunit of the human 26S proteasome) (human, UniProt P25788 2-255)
T1 sequence: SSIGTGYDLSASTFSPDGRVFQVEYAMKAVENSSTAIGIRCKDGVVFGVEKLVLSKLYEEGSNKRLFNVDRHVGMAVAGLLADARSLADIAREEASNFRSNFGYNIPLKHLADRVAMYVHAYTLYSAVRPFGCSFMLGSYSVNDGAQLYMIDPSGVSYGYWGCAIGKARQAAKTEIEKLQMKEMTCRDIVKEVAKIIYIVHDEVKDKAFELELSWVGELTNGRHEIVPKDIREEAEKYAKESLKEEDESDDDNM

Measured: binding result

Rpn1 (non-ATPase, ubiquitin-binding subunit of the human 26S proteasome), sequence (Q13200 whole entry): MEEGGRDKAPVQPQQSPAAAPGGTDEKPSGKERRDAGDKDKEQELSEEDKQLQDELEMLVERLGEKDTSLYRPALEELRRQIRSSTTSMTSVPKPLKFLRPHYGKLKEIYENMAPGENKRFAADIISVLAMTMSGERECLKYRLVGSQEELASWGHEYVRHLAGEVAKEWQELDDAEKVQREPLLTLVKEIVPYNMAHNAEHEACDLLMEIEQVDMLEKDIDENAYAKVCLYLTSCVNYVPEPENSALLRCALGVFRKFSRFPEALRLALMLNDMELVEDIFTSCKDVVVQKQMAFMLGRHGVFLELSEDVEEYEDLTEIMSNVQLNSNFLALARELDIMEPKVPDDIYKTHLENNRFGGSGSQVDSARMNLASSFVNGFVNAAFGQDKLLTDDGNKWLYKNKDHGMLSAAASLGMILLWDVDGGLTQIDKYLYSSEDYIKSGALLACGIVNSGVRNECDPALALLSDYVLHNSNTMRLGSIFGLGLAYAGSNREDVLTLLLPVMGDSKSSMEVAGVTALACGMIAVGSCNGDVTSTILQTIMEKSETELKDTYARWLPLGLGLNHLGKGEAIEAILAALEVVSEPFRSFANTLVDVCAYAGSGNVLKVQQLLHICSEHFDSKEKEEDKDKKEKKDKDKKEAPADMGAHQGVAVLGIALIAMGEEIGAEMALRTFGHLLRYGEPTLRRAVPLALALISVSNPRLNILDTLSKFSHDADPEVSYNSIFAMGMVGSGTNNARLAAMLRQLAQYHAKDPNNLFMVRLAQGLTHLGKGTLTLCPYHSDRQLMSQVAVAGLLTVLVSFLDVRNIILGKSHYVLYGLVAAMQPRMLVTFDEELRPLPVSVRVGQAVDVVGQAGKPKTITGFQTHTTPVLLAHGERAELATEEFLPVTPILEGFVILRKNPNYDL
Rpt1 (ATPase subunit of the human 26S proteasome), sequence (P35998 whole entry): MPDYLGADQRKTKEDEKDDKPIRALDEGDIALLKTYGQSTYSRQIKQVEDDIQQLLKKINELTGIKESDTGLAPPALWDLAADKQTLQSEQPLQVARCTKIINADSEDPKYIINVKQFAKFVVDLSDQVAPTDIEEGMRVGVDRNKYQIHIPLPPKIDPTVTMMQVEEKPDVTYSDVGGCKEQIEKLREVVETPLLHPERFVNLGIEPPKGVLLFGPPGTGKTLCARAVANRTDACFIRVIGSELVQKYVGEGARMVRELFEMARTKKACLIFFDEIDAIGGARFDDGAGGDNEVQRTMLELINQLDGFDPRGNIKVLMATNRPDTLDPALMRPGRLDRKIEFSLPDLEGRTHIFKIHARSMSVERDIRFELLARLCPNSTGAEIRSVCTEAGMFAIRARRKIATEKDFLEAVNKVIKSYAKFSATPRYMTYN
Rpt5 (ATPase subunit of the human 26S proteasome), sequence (P17980 whole entry): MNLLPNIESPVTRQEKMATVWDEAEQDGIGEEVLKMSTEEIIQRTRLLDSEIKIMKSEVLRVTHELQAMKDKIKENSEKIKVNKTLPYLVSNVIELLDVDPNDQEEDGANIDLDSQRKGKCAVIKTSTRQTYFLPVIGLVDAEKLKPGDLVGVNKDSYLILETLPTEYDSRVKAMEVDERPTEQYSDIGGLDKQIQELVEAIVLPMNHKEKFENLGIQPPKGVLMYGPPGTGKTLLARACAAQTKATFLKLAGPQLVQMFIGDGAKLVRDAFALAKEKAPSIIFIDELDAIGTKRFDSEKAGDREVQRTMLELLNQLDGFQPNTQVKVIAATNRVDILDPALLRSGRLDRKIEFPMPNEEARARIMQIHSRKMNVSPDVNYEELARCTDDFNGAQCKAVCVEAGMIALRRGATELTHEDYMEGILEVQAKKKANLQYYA

B1: ZFAND5 (recombinant mouse ZFAND5, wild type) (natural protein, UniProt O88878 1-213, looked up)
chain: MAQETNQTPGPMLCSTGCGFYGNPRTNGMCSVCYKEHLQRQQNSGRMSPMGTASGSNSPTSDSASVQRADAGLNNCEGAAGSTSEKSRNVPVAALPVTQQMTEMSISREDKITTPKTEVSEPVVTQPSPSVSQPSSSQSEEKAPELPKPKKNRCFMCRKKVGLTGFDCRCGNLFCGLHRYSDKHNCPYDYKAEAAAKIRKENPVVVAEKIQRI
binds: all assays above
